Measurements as given in EP4740967A1 (Shanghai Escugen Biotechnology Co., Ltd., dated 2026).

T1: human Claudin18.2 (human, UniProt P56856 1-261)
T1 sequence (looked up): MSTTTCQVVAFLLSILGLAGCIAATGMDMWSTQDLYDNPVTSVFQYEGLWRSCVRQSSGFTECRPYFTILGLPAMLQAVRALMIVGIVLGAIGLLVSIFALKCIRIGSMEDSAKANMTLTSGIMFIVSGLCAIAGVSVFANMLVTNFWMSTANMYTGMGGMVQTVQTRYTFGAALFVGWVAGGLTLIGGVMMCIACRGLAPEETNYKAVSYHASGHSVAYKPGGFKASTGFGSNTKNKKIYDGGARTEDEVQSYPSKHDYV

B1: 9D1-LD-38 (antibody, human IgG1, kappa, V domains shown)
VH: QIQLVQSGAEVKKPGASVKISCKASGYSFTDYHMNWVRQAPGKGLEWIGNIDPYYGSPTYNHKFKGRVTLTVDTSTSTAYMELSSLRSEDTAVYYCANYGRGNSFPYWGQGTLVTVSS
VL: DIVMTQSPSSLAVSLGERATINCKSSQSLLNSGNQRNYLTWYQQKPGQPPKLLIYWASTRESGVPDRFSGSGSGTDFTLTISSLQAEDVAVYYCQNDYSFPFTFGQGTKLEIKR
modifications: LD-38 linker-drug (Exatecan) on reduced interchain cysteine; main conjugation form one LD-38 molecule per light chain; LD-38 linker-drug (Exatecan) on reduced interchain cysteines; main conjugation form three LD-38 molecules per heavy chain (DAR 8 nominal, 7.8 measured)
B2: 9D1-LD-89 (antibody, human IgG1, kappa, V domains shown)
VH: B1 VH
VL: B1 VL
modifications: LD-89 linker-drug (Exatecan) on reduced interchain cysteines (Conjugation Method 1; DAR printed as 1 in Table 1)
B3: 9D1-LD-88 (antibody, human IgG1, kappa, V domains shown)
VH: B1 VH
VL: B1 VL
modifications: LD-88 linker-drug (Exatecan) on reduced interchain cysteines (Conjugation Method 1; DAR printed as 1 in Table 1)
B4: 9D1-LD-82 (antibody, human IgG1, kappa, V domains shown)
VH: B1 VH
VL: B1 VL
modifications: LD-82 linker-drug (structure, preparation and DAR not described in the filing)
B5: 9D1-GGFG-Exatecan (antibody, human IgG1, kappa, V domains shown)
VH: B1 VH
VL: B1 VL
modifications: MC-GGFG-Exatecan linker-drug on reduced interchain cysteines (Conjugation Method 1, DAR 8)
B6: 9D1-LD-73 (antibody, human IgG1, kappa, V domains shown)
VH: B1 VH
VL: B1 VL
modifications: LD-73 linker-drug (Exatecan, PEG side chain) on reduced interchain cysteines (Conjugation Method 1, DAR 8)
B7: 9D1-LD-31-P1 (antibody, human IgG1, kappa, V domains shown)
VH: B1 VH
VL: B1 VL
modifications: LD-31-P1 linker-drug (Exatecan) on reduced interchain cysteines (Conjugation Method 1, DAR 8)
B8: 9D1-vc-PAB-MMAE (antibody, human IgG1, kappa, V domains shown)
VH: B1 VH
VL: B1 VL
modifications: MC-VC-PAB-MMAE linker-drug on partially reduced interchain cysteines (Conjugation Method 2, DAR 4)
B9: 9D1-LD-72 (antibody, human IgG1, kappa, V domains shown)
VH: B1 VH
VL: B1 VL
modifications: LD-72 linker-drug (Exatecan) on reduced interchain cysteines (Conjugation Method 1, DAR 8)
B10: 9D1-LD-57 (antibody, human IgG1, kappa, V domains shown)
VH: B1 VH
VL: B1 VL
modifications: LD-57 linker-drug (MMAE) on partially reduced interchain cysteines (Conjugation Method 2, DAR 4)
B11: 9D1-LD-31-P2 (antibody, human IgG1, kappa, V domains shown)
VH: B1 VH
VL: B1 VL
modifications: LD-31-P2 linker-drug (Exatecan) on reduced interchain cysteines (Conjugation Method 1, DAR 8)
B12: 9D1-LD-65 (antibody, human IgG1, kappa, V domains shown)
VH: B1 VH
VL: B1 VL
modifications: LD-65 linker-drug (Exatecan) on reduced interchain cysteines (Conjugation Method 1, DAR 8)
B13: 9D1-LD-74 (antibody, human IgG1, kappa, V domains shown)
VH: B1 VH
VL: B1 VL
modifications: LD-74 linker-drug (Exatecan, polysarcosine side chain) on reduced interchain cysteines (Conjugation Method 1, DAR 8)
B14: 9D1-LD-66 (antibody, human IgG1, kappa, V domains shown)
VH: B1 VH
VL: B1 VL
modifications: LD-66 linker-drug (Exatecan) on reduced interchain cysteines (Conjugation Method 1, DAR 8)
B15: 9D1-LD-37 (antibody, human IgG1, kappa, V domains shown)
VH: B1 VH
VL: B1 VL
modifications: LD-37 linker-drug (Exatecan) on reduced interchain cysteines (Conjugation Method 1, DAR 8)
B16: 9D1-LD-12 (antibody, human IgG1, kappa, V domains shown)
VH: B1 VH
VL: B1 VL
modifications: LD-12 linker-drug (Exatecan) on reduced interchain cysteines (Conjugation Method 1, DAR 8)
B17: 9D1-LD-71 (antibody, human IgG1, kappa, V domains shown)
VH: B1 VH
VL: B1 VL
modifications: LD-71 linker-drug (SN38) on reduced interchain cysteines (Conjugation Method 1, DAR 8)
B18: 9D1-ELC122 (antibody, human IgG1, kappa, V domains shown)
VH: B1 VH
VL: B1 VL
modifications: ELC122 linker-drug (SN38) on reduced interchain cysteines (Conjugation Method 1, DAR 8)

Each binder was assayed against T1, human Claudin18.2 (assay: cell-based or functional assay).

Binder | IC50 of inhibition of proliferation of MC38-hClaudin18.2 cells (AlamarBlue cell viability, 72 h) [nM]
B1 | 0.632
B2 | 0.757
B3 | 1.46
B4 | 8.01

Molecular target: T1, human Claudin18.2
Experiment: cell-based or functional assay
Remark: another data set of the same source

Binder | IC50 of in vitro cell killing on MC38-hClaudin18.2 cells (AlamarBlue cell viability) [nM]
B5 | 11
B6 | 1.4
B1 | 1.36
B7 | 4.35
B8 | 0.407
B9 | 1.08
B10 | 0.53
B11 | 2.91
B12 | 1.61
B13 | 2.22
B14 | 1.09
B15 | 0.802
B16 | 0.799

Molecular target: T1, human Claudin18.2
Experiment: cell-based or functional assay
Remark: another data set of the same source

Binder | IC50 of in vitro cell killing on NUGC4-hClaudin18.2 cells (CCK-8 cell viability, 120 h) [nM]
B5 | 0.184
B6 | 1.27
B1 | 0.728
B8 | 0.064
B9 | 0.553
B10 | 0.053
B12 | 0.701
B13 | 1.16
B14 | 0.996
B16 | 0.58

Molecular target: T1, human Claudin18.2
Experiment: cell-based or functional assay
Remark: another data set of the same source

Binder | IC50 of in vitro cell killing on HEK293-hClaudin18.2 cells (AlamarBlue cell viability, 72 h) [nM]
B17 | 0.397
B1 | 0.09
B18 | 0.628
B12 | 0.086
B14 | 0.996
